What was measured:
[1] = Visual inspection of 96-well plates after fibrillation; format: physicochemical; conditions: after fibrillation in 96-well plates, 24 h
[2] = Fibrillation kinetics by turbidity measurement (UV absorbance at 340 nm); format: physicochemical; conditions: 100 μM peptide, 731 cpm
Method: Fibrillation kinetics of hCT, rhCT and phCT was followed by measuring the increase in solution turbidity due to formation of soluble oligomeric species and insoluble fibrils. […] At each time point, six replicate measurements were performed for each sample. Fibrillation was carried out for 12 or 24 h at 25° C. with continuous shaking at 731 cpm. Solution turbidity was measured by UV absorbance at 340 nm at 10 or 15-min read intervals. The turbidity data was fitted to the Boltzmann sigmoidal function (Eq. 1) and analyzed as described above.

[3] = Secondary structure change during fibrillation by CD spectroscopy; format: physicochemical; conditions: 0 to 1440 min, 100 μM peptide, pH 7.4, 25° C., 731 cpm
Method: Changes in the secondary structure of hCT and phCT were monitored by CD spectroscopy using a Jasco J-815 spectrometer (JASCO Analytical Instruments, Easton, Md.). […] At predetermined time intervals, samples were withdrawn for CD analysis. CD spectra were recorded in a quartz cuvette with 1 mm pathlength, scanned from 190 nm to 260 nm in the far UV range, at a scan speed of 50 nm/min at 20° C. Each spectrum was reported as an average of three scans.

[4] = Fibrillation kinetics by Thioflavin-T (ThioT) fluorescence measurement; format: physicochemical; conditions: 100 μM peptide
Method: The fibrillation kinetics of hCT, rhCT and phCT was monitored by measuring the increase in fluorescence intensity upon thioflavin T (ThioT) binding to peptide fibrils. The ThioT stock solution (2.5 mM) was prepared in di-water and diluted 10-fold with buffer to give a working solution (250 μM). […] The peptide solution was quickly transferred to a 96-well microtiter plate and placed in a Synergy Neo2 Multi-Detection microplate reader (BioTek Instruments, Winooski, Vt.). 5 μL of ThioT working solution (250 μM) was added to 245 μL of peptide solution in each well to give a final ThioT concentration of 5 μM per well. At each time point, six replicate measurements were performed for each sample. Fibrillation was carried out for 12 or 24 h at 25° C. with continuous shaking at 731 cpm. The fluorescence intensity of ThioT was bottom-read at an interval of 10 or 15 min, at excitation and emission wavelengths of 440 nm and 482 nm, respectively.
The ThioT fluorescence data were fitted to the Boltzmann sigmoidal function as given below, using GraphPad Prism version 7.03 (GraphPad Software, La Jolla, Calif.).
where A1 is the minimum signal, A2 is the maximum signal, xo is the time at which the change in signal is 50% (t50) and dx′ is the slope of growth phase.^1 The lag time was determined either by sigmoidal fit to the fibrillation kinetics curve or using onset point determination. In sigmoidal fits, the lag time was determined as xo−2 dx′ using parameters obtained from nonlinear fit of the data to Eq. 1. […] In cases where sigmoid curve fitting could not be achieved, the t50 was estimated from the raw data as the time when the signal intensity reached half of the observed maximum value.

[5] = after 360 min of fibrillation time
[6] = after 1440 min of fibrillation, pepsin digestion
[7] = 20 mM sodium phosphate buffer pH 7.4, 25° C., n=6, mean±SD
[8] = 20 mM sodium phosphate buffer pH 7.4, 25° C., continuous shaking at 731 cpm, n=6, mean±SD

## human calcitonin [hCT]
[1]
  appearance on visual inspection: solid dense deposits
[5]
  deuterium incorporation, fragment 1-8: 16%
  deuterium incorporation, fragment 1-11: 13%
  deuterium incorporation, fragment 12-19: 22%
After 1440 min of fibrillation
  percent deuterium uptake, intact level: 28%
[6]
  deuterium uptake, fragment 20-32: 51%
  deuterium uptake, fragment 26-32: 54%
Fibrillation time t=0 min
  % D (percent deuterium uptake), intact level, Peak II: 68%
Start of fibrillation
  deuterium uptake, C-terminal fragments 20-32 and 26-32, initial value: ~60%
[2]; [7]
  lag time of fibrillation, turbidity: 198 ± 20 min
  t50 of fibrillation, turbidity: 257 ± 15 min
[2]; pH 7.4, 25° C.
  change in turbidity signal: An increase in solution turbidity was also observed
[3]
  change of CD signal during fibrillation: complete loss in signal
[4]; [8]
  lag time of fibrillation, ThioT fluorescence: 172 ± 15 min
  t50 of fibrillation, ThioT fluorescence: 236 ± 8 min
[4]; 20 mM sodium phosphate buffer pH 7.4, 25° C., continuous shaking at 731 cpm, n=6, mean±SD, listed as native hCT
  lag time of fibrillation, ThioT fluorescence: 172 ± 15 min
[4]; pH 7.4, 25° C., 731 cpm
  change in ThioT fluorescence with time: an increase in ThioT fluorescence was observed
